Target: pyruvate dehydrogenase complex (PDHC) immuno-captured from tissue lysates of E3 mice

B1: TAT-LAD fusion protein (His tag, TAT peptide, human LAD precursor) (protein)
chain: MGSSHHHHHHSSGLVPRGSHMRKKRRQRRRGSDPQSWSRVYCSLAKRGHFNRISHGLQGLSAVPLRTYADQPIDADVTVIGSGPGGYVAAIKAAQLGFKTVCIEKNETLGGTCLNVGCIPSKALLNNSHYYHMAHGTDFASRGIEMSEVRLNLDKMMEQKSTAVKALTGGIAHLFKQNKVVHVNGYGKITGKNQVTATKADGGTQVIDTKNILIATGSEVTPFPGITIDEDTIVSSTGALSLKKVPEKMVVIGAGVIGVELGSVWQRLGADVTAVEFLGHVGGVGIDMEISKNFQRILQKQGFKFKLNTKVTGATKKSDGKIDVSIEAASGGKAEVITCDVLLVCIGRRPFTKNLGLEELGIELDPRGRIPVNTRFQTKIPNIYAIGDVVAGPMLAHKAEDEGIICVEGMAGGAVHIDYNCVPSVIYTHPEVAWVGKSEEQLKEEGIEYKVGKFPFAANSRAKTNADTDGMVKILGQKSTDRVLGAHILGPGAGEMVNEAALALEYGASCEDIARVCHAHPTLSEAFREANLAASFGKSINFE
- PDHC enzymatic activity of immuno-captured PDHC, the three organs at 24 hours post-treatment, percent increase: increase in PDHC enzymatic activity (40-65%) was also evident in the three organs at 24 hours post-treatment

— patent publication US20170224783
